US20230287094A1 (LUDWIG INSTITUTE FOR CANCER RESEARCH, published 2023)

T1: human TGF-β2 (human, UniProt P61812 303-414)
T1 construct: also called TGF-ß2
T1 sequence (looked up): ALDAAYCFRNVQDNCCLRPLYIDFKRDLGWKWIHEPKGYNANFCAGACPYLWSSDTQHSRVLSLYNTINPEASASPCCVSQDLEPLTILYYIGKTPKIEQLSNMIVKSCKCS

T2: human TGF-β3 (human, UniProt P10600 301-412)
T2 sequence: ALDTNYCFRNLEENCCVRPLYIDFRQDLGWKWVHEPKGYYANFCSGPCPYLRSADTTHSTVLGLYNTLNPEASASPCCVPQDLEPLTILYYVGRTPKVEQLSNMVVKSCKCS


Legend:
human TGF-β2 [1] = target: T1, human TGF-β2; assay: cell-based or functional assay
human TGF-β1 = human TGF-β1 (human, UniProt P01137 279-390); assay: cell-based or functional assay
human TGF-β1, sequence (P01137 279-390 limits assumed): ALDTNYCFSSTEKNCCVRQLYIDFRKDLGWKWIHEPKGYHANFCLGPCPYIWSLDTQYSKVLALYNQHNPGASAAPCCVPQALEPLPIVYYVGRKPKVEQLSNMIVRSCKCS

human TGF-β3 = target: T2, human TGF-β3; assay: cell-based or functional assay
human TGF-β2 [2] = target: T1, human TGF-β2; assay: assay not named
Description: Mink lung epithelial cell line (TMLECs) were stably transfected with a truncated PAI-1 promoter fused to the firefly luciferase reporter gene. 500 pg/ml human TGF-ß3 was incubated with serial dilutions of isolated TGF-β3 antibody for 4 h at 37° C. before transfer to an equal volume of culture medium (DMEM + 10 % FCS) where 50,000 TMLEC cells had been seeded 1 - 4 h earlier. After a further 24 h incubation, luciferase activity was measured with the BRITELITE kit from Perkin-Elmer and luminescence was measured in a TOPCOUNT NXT from Perkin Elmer.
Antibody ranging from 10 to 0 µg/ml were incubated with 500 pg/ml of the different TGF-β isoforms and TMLEC cells for 24 hours.

| IC 50 (ng/ml), TMLEC PAI-1 promoter luciferase assay (human TGF-β2 [1]) [ng/mL] | IC 50 (ng/ml), TMLEC PAI-1 promoter luciferase assay (human TGF-β1) [ng/mL] | IC 50 (ng/ml), TMLEC PAI-1 promoter luciferase assay (human TGF-β3) [ng/mL] | binding result (human TGF-β2 [2]) | Binder |
| --- | --- | --- | --- | --- |
| 53.7 | 72 | 6.5 | – | 1D11 mouse monoclonal anti-TGF-ß antibody (antibody, from another filing, V domains shown) VH: QVQLQQSGPELVRPGASVKLSCKASGYIFITYWMNWVKQRPGQGLEWIGQIFPASGSTNYNEMFEGKATLTVDTSSSTAYMQLSSLTSEDSAVYYCARGDGNYALDAMDYWGQGTSVTVSS VL: DIVLTQSPASLAVSLGQRATISCRASESVDSYGNSFMHWYQQKSGQPPKLLIYLASNLESGVPARFSGSGSRTDFTLTIDPVEADDAATYYCQQNNEDPLTFGAGTKLEIK |
| – | – | 54 | – | MTGF-β3-1203/11 (antibody, IgG2b, V domains shown) VH: QVQLKQSGAELVKPGASVKISCKASGYTFTDYYINWVKQRPGQGLEWIGKIGPGTGRTYYNEKFKGKATLTADKSSSTAYMQLSSLTSEDSAVYFCAIYYGWGYAMDYWGQGTSVTVSS VL: DIVMTQSPSSLSVSAGEKVTMSCKSSQSLLNSGNQKNYLAWYQQKSGQPPKLLIYGASTRESGVPDRFTGSGSGTDFTLTISSVQAEDLAVYYCQNDHGFPLTFGAGTKLELK |
| – | 263 | 79 | binds | MTGF-β3-1719/13 (antibody, IgG2a, V domains shown, also called TGF-ß3-17) VH: QVQLQQPGAELVKPGASVKMSCKASGYIFTSYWITWVKQRPGQGLEWIGDIFPGTGSTNYNEKFKTKASLTVDTSSSTANMQLSSLTSEDSAVYSCARKLGPNYAVDYWGQGTSVTVSS VL: DVVMTQTPLSLPVSLGDQASISCRSSQSLIHSHGNTYLHWYLQKPGQSPKLLIYKLSNRFSGVPDRFSGSGSGTDFTLKISRVEAEDLGVYFCSQSTHVPFTFGSGTKLEIK |
| – | – | 25 | – | MTGF-β3-1901/16 (antibody, IgG1, V domains shown) VH: QVLLQQSGPELVKPGASVKISCKASGYAFSSSWIHWVKQRPGKGLEWIGRIYPGDGDTNYTGKFKGKATLTADKSSSTAYMQLSSLTSEDSAVYFCARRMITTQAAMDYWGQGTSVTVSS VL: SFVMTQTPKFLLVSAGDRVTITCKASQSVINAVAWYQQKPGQSPKLLIYYASNRYTGVPDRFTGNGYGTDFTFTISTVQAEDLAVYFCQQDYSSPYTFGGGTKLEIK |
| – | – | 6 | – | MTGF-β3-1679/2 (antibody, IgG2a, V domains shown) VH: QVLLQQSGPELVKPGASVKISCKASGYAFSSSWIHWVKQRPGKGLEWIGRIYPGDGDTNYTGKFKGKATLTADKSSSTAYMQLSSLTSEDSAVYFCARRMITTQAAMDYWGQGTSVTVSS VL: SFVMTQTPKFLLVSAGDRVTITCKASQSVINAVAWYQQKPGQSPKLLIYYASNRYTGVPDRFTGNGYGTDFTFTISTVQAEDLAVYFCQQDYSSPYTFGGGTKLEIK |
| – | – | 13 | – | MTGF-β3-9/8 (antibody, IgG2a, V domains shown) VH: QVLLQQSGPELVKPGASVKISCKASGYAFSSSWMHWVKQRPGKGLEWIGRIFPGDGDTIYNGNFKGKATLTADKSSSTAYMQLSSLTSEDSAVYFCARRMITTQAAMDYWGQGTSVTVSS VL: SIVMTQTPKFLLVSAGDRVTITCKASQSVINDVAWYQQKPGQSPKLLIYYASNRYTGVPDRFTGNGYGTDFTFTISTVQAEDLAVYFCQQDYSSPYTFGGGTKLEIK |
